B1: HA-EICD: rat EphA4 intracellular domain (amino acid 571 to stop) with N-terminal HA tag, SEQ ID NO: 94, expressed by transfection (protein, listed as Rattus norvegicus)
chain: MDYPYDVPDYATRVERRRSKYSQAKQEADEEKHLNQGVRTYVDPFTYEDPNQAVREFAKEIDASCIKIEKVIGVGEFGEVCSGRLKVPGKREICVAIKTLKAGYTDKQRRDFLSEASIMGQFDHPNIIHLEGVVTKCKPVMIITEYMENGSLDAFLRKNDGRFTVIQLVGMLRGIGSGMKYLSDMSYVHRDLAARNILVNSNLVCKVSDFGMSRVLEDDPEAAYTTRGGKIPIRWTAPEAIAYRKFTSASDVWSYGIVMWEVMSYGERPYWDMSNQDVIKAIEEGYRLPPPMDCPIALHQLMLDCWQKERSDRPKFGQIVNMLDKLIRNPNSLKRTGPESSRPNTALLDPSSPEFSAVVSVGDWLQAIKMDRYKDNFTAAGYTTLEAVVHMSQDDLARIGITAITHQNKILSSVQAMRTQMQQMHGRMVPV
modifications: N-terminal HA tag
B2: HA-γ-fragment: γ-secretase-cleaved rat EphA4 intracellular fragment with N-terminal HA tag, SEQ ID NO: 198, expressed by transfection (protein)
chain: MSALLILALVGAAVAGSEFTRVEVTTNTVPSRIIGDGANSTVLLVSVSGSVVLVVILIAAFVISRRRSKYSQAKQEADEEKHLNQGVRTYVDPFTYEDPNQAVREFAKEIDASCIKIEKVIGVGEFGEVCSGRLKVPGKREICVAIKTLKAGYTDKQRRDFLSEASIMGQFDHPNIIHLEGVVTKCKPVMIITEYMENGSLDAFLRKNDGRFTVIQLVGMLRGIGSGMKYLSDMSYVHRDLAARNILVNSNLVCKVSDFGMSRVLEDDPEAAYTTRGGKIPIRWTAPEAIAYRKFTSASDVWSYGIVMWEVMSYGERPYWDMSNQDVIKAIEEGYRLPPPMDCPIALHQLMLDCWQKERSDRPKFGQIVNMLDKLIRNPNSLKRTGPESSRPNTALLDPSSPEFSAVVSVGDWLQAIKMDRYKDNFTAAGYTTLEAVVHMSQDDLARIGITAITHQNKILSSVQAMRTQMQQMHGRMVPVAAAMDYPYDVPDYA
modifications: N-terminal HA tag; synthetic DNA
B3: EICD Δ1: HA-tagged EphA4 intracellular deletion mutant, 587 amino acid-Stop, SEQ ID NO: 168 (protein, listed as Rattus norvegicus)
chain: MDYPYDVPDYATRVDKHLNQGVRTYVDPFTYEDPNQAVREFAKEIDASCIKIEKVIGVGEFGEVCSGRLKVPGKREICVAIKTLKAGYTDKQRRDFLSEASIMGQFDHPNIIHLEGVVTKCKPVMIITEYMENGSLDAFLRKNDGRFTVIQLVGMLRGIGSGMKYLSDMSYVHRDLAARNILVNSNLVCKVSDFGMSRVLEDDPEAAYTTRGGKIPIRWTAPEAIAYRKFTSASDVWSYGIVMWEVMSYGERPYWDMSNQDVIKAIEEGYRLPPPMDCPIALHQLMLDCWQKERSDRPKFGQIVNMLDKLIRNPNSLKRTGPESSRPNTALLDPSSPEFSAVVSVGDWLQAIKMDRYKDNFTAAGYTTLEAVVHMSQDDLARIGITAITHQNKILSSVQAMRTQMQQMHGRMVPV
modifications: HA tag
B4: EICD Δ2: HA-tagged EphA4 intracellular deletion mutant, 622 amino acid-Stop, SEQ ID NO: 170 (protein, listed as Rattus norvegicus)
chain: MDYPYDVPDYATRVDKIEKVIGVGEFGEVCSGRLKVPGKREICVAIKTLKAGYTDKQRRDFLSEASIMGQFDHPNIIHLEGVVTKCKPVMIITEYMENGSLDAFLRKNDGRFTVIQLVGMLRGIGSGMKYLSDMSYVHRDLAARNILVNSNLVCKVSDFGMSRVLEDDPEAAYTTRGGKIPIRWTAPEAIAYRKFTSASDVWSYGIVMWEVMSYGERPYWDMSNQDVIKAIEEGYRLPPPMDCPIALHQLMLDCWQKERSDRPKFGQIVNMLDKLIRNPNSLKRTGPESSRPNTALLDPSSPEFSAVVSVGDWLQAIKMDRYKDNFTAAGYTTLEAVVHMSQDDLARIGITAITHQNKILSSVQAMRTQMQQMHGRMVPV
modifications: HA tag
B5: EICD Δ3: HA-tagged EphA4 intracellular deletion mutant, 661 amino acid-Stop, SEQ ID NO: 172 (protein, listed as Rattus norvegicus)
chain: MDYPYDVPDYATRVDDKQRRDFLSEASIMGQFDHPNIIHLEGVVTKCKPVMIITEYMENGSLDAFLRKNDGRFTVIQLVGMLRGIGSGMKYLSDMSYVHRDLAARNILVNSNLVCKVSDFGMSRVLEDDPEAAYTTRGGKIPIRWTAPEAIAYRKFTSASDVWSYGIVMWEVMSYGERPYWDMSNQDVIKAIEEGYRLPPPMDCPIALHQLMLDCWQKERSDRPKFGQIVNMLDKLIRNPNSLKRTGPESSRPNTALLDPSSPEFSAVVSVGDWLQAIKMDRYKDNFTAAGYTTLEAVVHMSQDDLARIGITAITHQNKILSSVQAMRTQMQQMHGRMVPV
modifications: HA tag
B6: EICD Δ4: HA-tagged EphA4 intracellular deletion mutant, 701 amino acid-Stop, SEQ ID NO: 174 (protein, listed as Rattus norvegicus)
chain: MDYPYDVPDYATRVDYMENGSLDAFLRKNDGRFTVIQLVGMLRGIGSGMKYLSDMSYVHRDLAARNILVNSNLVCKVSDFGMSRVLEDDPEAAYTTRGGKIPIRWTAPEAIAYRKFTSASDVWSYGIVMWEVMSYGERPYWDMSNQDVIKAIEEGYRLPPPMDCPIALHQLMLDCWQKERSDRPKFGQIVNMLDKLIRNPNSLKRTGPESSRPNTALLDPSSPEFSAVVSVGDWLQAIKMDRYKDNFTAAGYTTLEAVVHMSQDDLARIGITAITHQNKILSSVQAMRTQMQQMHGRMVPV
modifications: HA tag

Experiments:
NIH3T3 cells = test: Lamellipodia formation (Rac1 activation indicator) after gene transfer into NIH3T3 cells; assay type: cell-based; details: for lamellipodia formation promotive capacity: cotransfected with Rac1N17 (dominant negative form of Rac1); for lamellipodia formation promotive capacity / lamellipodia formation: FIG. 6, FIG. 7; for lamellipodia formation: fragment gene transfected alone, vs HA control; for ratios of lamellipodia forming cells: EICD deletion mutants transfected separately, compared with HA, FIG. 8
Method: In order to examine whether or not EICD produced by γ-secretase is involved in the signaling mechanism of Rho family molecules, and activation of which molecule EICD is involved in, gene transfer into NIH3T3 cells was performed, followed by analysis of the effect of EICD in the rearrangement of actin cytoskeletons in which Rho family molecules are involved. In the rearrangement, the following facts are known: when RhoA is activated, actin fibers called stress fibers are formed at the bottom of cells; when Cdc42 is activated, protrusions called filopodia are formed; when Rac1 is activated, structures called lamellipodia are formed. The effect of EICD was examined with these formations as indicators.
NIH3T3 cells were cultured in 10% CBS (flow)/Antibiotic-Antimycotic (Invitrogen)/DMEM (Invitrogen) under 5% CO2 at 37° C. Genes encoding HA-EICD (SEQ ID NO: 93) or EICD+Rac1N17 (SEQ ID NO: 200) were transfected into the cells with Lipofectamine 2000 (Invitrogen). Eighteen hours later, the cells were replated in wells provided with poly-L-lysin (SIGMA)-coated 13 mm cover glass. Eighteen hours thereafter, the cells were fixed in 2% paraformaldehyde (Wako), treated with 0.25% TritonX-100 and blocked with BlockAce (Snow Brand Milk Products). After the blocking, the cells were treated with rat anti-HA antibody (Roche), followed by reaction with FITC-linked anti-rat IgG antibody (Jackson) and Alexa Fluor phalloidin 546 (Molecular probes).
In the above-mentioned Example 6, the EphA4 fragment used in Example 5 (SEQ ID NO: 197) was transfected instead of the HA-EphA4 intracellular fragment and lamellipodia formation was analyzed in the same way.
Genes encoding HA, HA-EICD (SEQ ID NO: 93) and various EICD mutants (HA-EICD Δ1 to HA-EICD Δ4) prepared in (1) above were transfected to NIH3T3 cells separately in the same manner as described in Examples 6 and 7. Then, ratios of lamellipodia forming cells were examined. In the various EICD mutants described below, capital letters appearing at the 5′ end of the nucleotide sequences represent a nucleotide sequence encoding HA tag. Small letters appearing at the 3′ end represent a nucleotide sequence encoding EphA4 intracellular fragment.

[1] = test system: primary culture of rat hippocampal neurons; test: Spine formation analysis by overexpression of EphA4 fragments in primary culture of rat hippocampal neurons; assay type: cell-based; details: fragment gene transfected on day 9 of culture, counted twelve days after gene transfer, GFP-visualized; vs HA control; FIG. 4, FIG. 5
Method: Primary culture of rat hippocampal neurons were cultured in the same manner as described in Example 2. On day 9 of culture, gene transfer experiment was performed using Lipofectamine 2000 (Invitrogen) according to the manual. In order to visualize the morphology of spines, pcDNA3.1Syn1 GFP (SEQ ID NO: 306) was co-transferred into the neurons. Twelve days after the gene transfer, the neurons were fixed with 2% paraformaldehyde, treated with 0.25% TritonX-100 and blocked with BlockAce (Snow Brand Milk). After the blocking, the neurons were treated with rabbit anti-GFP antibody (Invitrogen) and rat anti-HA antibody (Roche); and reacted with FITC-linked anti-rabbit IgG antibody (Jackson), Cy3-linked anti-mouse IgG antibody (Jackson) and Cy5-linked anti-rat IgG antibody (Jackson). […] The spines (protuberances formed on dendrites) which were visualized by the expression of GFP were counted. Image data were quantitatively determined with image analysis software Metamorph (Molecular Devices). pcDNA3.1Syn1 GFP may be obtained by the procedures described below.
In the above-mentioned Example 4, the gene with an HA tag added to its N-terminus (SEQ ID NO:197), which is one of the two cleaved fragments, was transfected instead of the HA-EphA4 intracellular fragment and spine formation was analyzed in the same way based on the cleavage site specified in Example 3.

Molecule	lamellipodia formation promotive capacity (NIH3T3 cells)	lamellipodia formation (NIH3T3 cells)	number of spines [1]	ratios of lamellipodia forming cells (NIH3T3 cells)
B1	disappeared completely	lamellipodia formation is promoted	increases the number of spines	
B2	disappeared completely	promotes lamellipodia formation	increases the number of spines	
B3				lamellipodia forming cells are increased
B4				almost the same level as that of HA
B5				almost the same level as that of HA
B6				almost the same level as that of HA

— US7892769B2, “Processing of EphA4 polypeptide by γ-secretase activity” (Eisai R&D Management Co., Ltd., priority 2007, dated 2011)
